Test results from the domain aggregation screens of Martell et al. (2025).

Assay: soluble fraction after stress (log2 fold change); higher = more stays soluble; pooled small domains, quantitative proteomics
Conditions: stress: 50 degC
Procedure, shortened: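 Pooled custom libraries of small protein domains were each held under stress at 50°C. The read-out, high-throughput quantitative proteomics, tracked how much of each protein stayed soluble. This is reported as a base-two log fold change used to indicate aggregation propensity. Higher values mean more protein remains in solution.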

| Sequence | soluble fraction (log2) |
| --- | --- |
| HMIEESTVPDLKGKSQEDAIKLLEDANLKYQIVEEESKKIEAGYVISQETDANKKVNAGDTVIIHVST | 0.295 |
| HMIEFYTMQDMFYFKLTGDNTSRERREALGKILGIGYGNATQMVSRLNNYGISKEEFSKAIEEIEKQLEA | -2.8 |
| HMIEIKNLSFSYGKKKQSVFNDFSLTLDKGSVYGLLGKNGTGKSTLLYLMTGLLRPQAGQVLYKGVDVS | 0.0827 |
| HMIEKVNDYVVRFANVNGTGSASANNLFALAIYRMGVPVTPKNIFPSNIQGLPTWFEVRVSGSGYLARRG | 0.01 |
| HMIELDRTNLLGVFGPKSRPYALLMLSNGEMIKISIGDQFFGWRVYGIDEKSIQVQNGTKQEILRIP | -2.12 |
| HMIENGILELKGKTGVAQTVLRPSGKVLIDDEIYDAVALTGYIEKADKVLVTKVEATQLYVEK | 0.0576 |
| HMIERLVVSPAAGVFTKKMSVENNTRIDVGHVLGHVGETEVRSPFAGILQNYIAVDGERLTAHQPIAWLRS | 0.00717 |
| HMIERVLRTEEHIEAFAGEEVEAKLFAPIDGKKTLRGILGGIEDGRVILTVGDTEYRIEHAKISRLTTVFD | -0.122 |
| HMIESVMVGIKELLGDTIDQKYEKYIRLGGIPSDEVDEFNSVFSAYEKVNGNHNGKKKYDYVMNNLPIIPV | -0.26 |
| HMIETIQVPRAFNDWHEQADKTKSVFEVYAEIEASENEKLIAWVRNNQNEFAKIWLGALIPELE | -1.39 |
| HMIGHIGSAVMLNAKLRPRLPLLHVLALTQSLGERLSAAEAQPEVYRWSDPGQSRVIAEFEGGRLTRWRLE | -2.09 |
| HMIGVIVDEVDPDSSLKSGDIITEVNREVILNIDDFVGLVEQIQKTGRSSLLLKILRDKKSLWVTIQFV | 0.0885 |
| HMIHQIPVNVQKIRQIIGINLNENDYLNYLAKLGFVIDEGLIIVPSFRSDVKTQNDLAEEIARV | -0.444 |
| HMIINFDAIKLTTELNKYKRHKAIPNTFFDGTYTILDVRELYNDLTPKAQKIADELIEHYNVDVK | -1.88 |
| HMIINLGELLKMLEVNKYQDAMDALDSLIEEGGSLEKIESLHEIRQHTHAMNFREAERLLSILIESEGA | -0.746 |
| HMIISPKKLEYRQRIINALGDRKMSLNELSKAMGYKGITTKLSFTVDDMIKSGVIEKVMVGAYAKLHIP | -1.65 |
| HMIIVMKRNATETQIDHVVRWVESIGYRAHRSNGTEQTVVKAVGGERGGEELKYLAALSGVEKVVPIR | -0.0291 |
| HMIKDSKAAYKILGVDENATNEEIKKAYRQLVINHHPDKVSHLGEDIQRAANEKLKQINAAYDEIKKQRGF | 0.237 |
| HMIKEGDLVFIWNPKKGDSFLIKVQPGQSQGTHFGQIKHSEIMEHNYGEGIRTPKGQVYYLLRPTLGEFTR | -1.14 |
| HMIKEVGYEKFMQMTEEEDIGRVEIDQEENQITFTDKDETAIYKTGMVDDPDLTERLYDAGAEFS | 0.0297 |
| HMIKIDESTLSEDELKIFEILKIEDKNIENIAIESKILPGKLLATLMNMEMKKIVVQYPGKVFGLNRKLK | -0.492 |
| HMIKKAILPVAGLGTRFLPASKSIPKEMVTVVDRPAIEYVVREAVEAGIEQIILVTHSSKASIENYFDR | -0.187 |
| HMIKKLDIEPIIKSVVDDFNNIYKLKRGITISYLNDGKNKYFINGIENRIEQIIANLLDNSISFSEDNKDV | 0.0041 |
| HMIKLSTNENTALRLVMERGLVTESELKGLFDNPVAVMESLISKMIETNTHWIHSERSENGEWVYAWQ | -0.456 |
| HMIKNDIGKFIKLYRETHQWSQRELAEHLGVSQRNVSYYEKGERIPPADVLKKLSTLFDVPVDVLLGLK | -0.43 |
| HMIKRDLAFSEFIAEVKAGQVREVTIKGNSISGNLNDGREFNTYAPNDPNLVKTLTDQGVLIRAIPLE | -0.0273 |
| HMILNPQELGERIRKLRLKRNKTQSYFADMLYISSSYLALIESGKRVPNLDLLIHIAKFTDVTLDYLVFG | -1.22 |
